In the nanobody polyreactivity screen of Harvey et al. (2022):

Assay: yeast display, Sf9 membrane polyspecificity reagent, FACS + sequencing; frameworks hold sequencing errors
Method in brief: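 Galactose induction of a Saccharomyces cerevisiae BJ5465 synthetic nanobody display library ran 36–48 hours. The cells were then stained for 1 hour at 4 °C with 10% biotinylated, detergent-solubilized Sf9 membrane reagent, pulled down on streptavidin microbeads and FACS-sorted into low and high (top ~1%) gates on expression and reagent-binding fluorescence. Labels for polyreactivity follow the gate of origin.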

| Sequence | polyreactivity (PSR sort gate) |
| --- | --- |
| QVQLVESGGGIVQAGVSLRLISAASGRIFRINAMGWYRQAPGKERDLVADITSGGSTNYADSVKGRFTISRDNAKITVYLQMNSLKPEDTAVYFCAPGYVTYRTRLDYWGQGTQVTVSS | low polyreactivity |
| QVQLEESGGGLVQAGGSLRLSCAASGSILYVYAMGWSRQAPGKERELVAAMTRSGDTTSYADSVKGRFTISRDFAKNTVYLQLNSLKPEDTAVYYCDAAERRYGRGYGYWGQCTQVTVSS | high polyreactivity |
| QVQLVESGGGLVQAGGSLRLSCAASGRTFAGNAMGWYRQAPGKERELVAAISWSGGRTYYADSVKGRFTISRDNAKNTVYLQMNSLKPEETAVYYCAAVRASSRFRYGYWGQGTQVTVSS | high polyreactivity |
| QVQLVESGGGLVQAGGSLRLSCAASGGTFVVYAMGWYRQAPGKEREFVAGISWGGGRTYYADSVKGRFTISRDNAKNPVYLQMNSLKPEDTAVYYCAVRREIQYYRKFDYWGQGTQVTVSS | low polyreactivity |
| QVQLVESGGGLVQAGGSLRLSCAASGFTFRAYTMGWYRQAPGKERELVAAITYSGGRTYYADSVKGRFTISRDNAKNTVYLQMNSLKPEDTAVYYCAKRGWALSEYYYWGQGTQVTVSS | high polyreactivity |
| QVQLVESRGGLVQARGSLRLSSAASGRIFSDYAMGCYRQAPGKERDLVATISGGITNYADSVKGRFTISRDNANNTVYLQMNSLKPEDTAVYYCATVDGAYQYTYDYWGEGTQVTVSS | low polyreactivity |
| HVQLVESGGGLVEAGGSLRLSCAASGYISYVNAMGWYRQAPGKERELVATISIRGGRTYYADSVKGRFTISRDNAKNTVYLQMNSLKPEDTAVYYCNVRRAYYRRGPYYSTYYYWGQGTQVTVSS | high polyreactivity |
| QVKLGESGGGLVQAGGSLLLSCAASGRTFWYYTMGWYRQAPGKERELVASITAGSGTTYYADSVKGRFTISRHNAKNTVYFQMYSLKPEDSAGYYCSSKNTPSFFYYDRYDYWGHGTQVTVSS | low polyreactivity |
| QVQLVESGGGLVQAGGSLRLSCAASVRTVDSYTMGWYRQAPGKERELVAAIRSSGGRTYADSVKGRFTISRDNAKNTVYLQMNSLKPEDTAVYYCAAARSYWAKYYYWGQGTQVTVSS | high polyreactivity |
| QVQLVESGGGLVQAGGSLRLSCAASGSIFHRNTMGWYRQAPGKEREFVAGISWGGGRTYYADSVKGRFTISRDNAKNTVYLQMNSLKPEETAVYYCAAKTGGGGRLSTVYYWGQGTQVTLSS | high polyreactivity |
| QVQLVESGGGLLQAGGSLRLSCAASGSIFGSYVMGWYRQAPGKERELVAAITASGGSTYYADSVKGRFTISRDTAKNTVYLQMNSLKPEDTAVYYCATKRTWPVGEMYYWGQGTQVTVSS | high polyreactivity |
| QVQLEESGGGLVQAGGSLRLSCAASGSIFFFYAMGWYRQAPGKERELVAAISSDGSTKYADSVKGRFTISRDNAKNTVYLQMNILKPEDTAVYYCNADKWSVVGYVLGFYRDDYWGQGTQVTVSS | low polyreactivity |
| QVQLVESGGGLVQAGGSLRLSCAASGRFFRYNAMGWYRQAPGKERELVAAIRYSGTSTYYADSVKGRFTISRDNAKNTVYFQMNSLKPEDTAVYYCAAYKRYYYGYDYWGQGTQVTVSS | high polyreactivity |
| QVQLVESGGGLVKAGGSLRLSCAASGSTSPFNAMGWYRQAPGKERELVAAITSGGSTHYADSVKGRFTISRDNAKNTVYLPMNRLKPEDSAVYYCAAEPVAYYGSSYGYWGQGTQVNVSS | low polyreactivity |
| QVQLVESGGGLFQAGGSLRLSCAASGRTITYYAMGWYRQAPGKERELVAAITWSGGSTYYADSVKGRFTISRDNAKNTVYLQMNSMKPEDTAVYYCAKEFYYSSGFDYWGQGTQVTVSS | low polyreactivity |
| QVQLVESGGGLVQAGGSLRLSCAASGRTILVYAMGWYRQAPGKERELVAAISRSGGSTYYADSVKGRFTISRDNAKNTVYLQMNSLKPEDTAVYYCAAKNTGRYYWGQGTQVTVSS | high polyreactivity |
| QLQLVESGGGLVQAGGSLRLSCAASGRIFYQTAMGWYRQAPGKERELVADIASGGSTYYADSVKGRFSISRDNAKNTVHLQMNSLKREDTAVDYCATAVLYGDGWYYYWGQGTQVTVSS | low polyreactivity |
| QVQLVESGGGLVQAGGSLRLSCAASGRTIYLNAMGWYRQAPGKERELVAAISRNGGSTYYADSVKGRFTISRDNAKNTVYLQMNSLKPEDTAVYYCAAEWDDGRSWYWYYLVGFEYWGQGTQVTVSS | high polyreactivity |
| QVQLVESGGGLVQAGGSLRLSCSASGSTFSDNVMGWYRQAPGKERELVAGITRSGGRTYYADSVKGRFTISRDNAKNTVYLQMNSLKPEDTAVYYCAAASSGEYGYWGQGTQVTVSS | low polyreactivity |
| QVQLVESGGGLVQAGGSLRLSCAASGSIFVVYAMGWYRPAHGKERELVAAIDSGGSTYYADSVKGRFTISRDNAKNTVYLQMNSMKTEDTAVYYCAADIYYYLWGLYYWGQGTQVTVSS | low polyreactivity |
| QVQLVESGGGLVQAGGSLRLSCAASGSTFYTNAMGWYRQAPGKEREFVAAISWSGSSTYADSVKGRFTISRDNAKNTVYLQMNSLKPEDTAVYYCSADWFKLRTDYYWGQGTQVTVSS | low polyreactivity |
| QVQLVESGGGLVQAGGSLRLSCAASGSISSQYAMGWYRQAPGKERELVAAISYSGGSTYYADSVKGRFTISRDNAKNTVYLQMNSLKPEDTAVYYCAAETSYYTRWFDGHYYYWGQGTQVTVSS | high polyreactivity |

| Sequence | polyreactivity (PSR sort gate) |
| --- | --- |
| QGQLVESGGGLVQAGGSLSLSCAASRFTFQRYAMGWDRQAPGKERELVAAISVSGGRTYYADSVKGRFTISRDNAKNSVYLQMNSLKPEDTAVYYCAAEGFLGWYYYWGQGNQVTVSS | high polyreactivity |
| QVQLVESGGGSVQAGGSLRLSCAASGSTFQTNAMGWYRQAPGKERELVAAISRTGGRTYYADSVKGRFTISRDNAKNTVYLQMNSLKPEDTAVYYCAASAWIRYNNRDGYGYWGQGTQVTVSS | high polyreactivity |
| QVQLVESGGGLVQAGGSLRLSCAASGSTFTSYAMGWYRQAPGKEREFVAAISWSGGSTYYADSVKGRFTISRDNAKNTVYLQMNSLKPEDTAVYYCNAVLRSYYSPWYDYWGQATQVTVSS | high polyreactivity |
| QVQLVESGGGLVQAGGSLRLSCAAAGRISYANAMGWYRQAPGKERELVASITYSAGSTYADSVKGRFTISRDNAKNTVYLQMNSLKPEDTAVYYCAKRPSQHYRSYLMDYWGQGTQVTVSS | low polyreactivity |
| QVQLVESGGGLVQAGGSLRLSCAASGFTFYQYAMGWYRQAPGKERELVAAISSSGTSTYYADSVKGRFTISRDNAKNTVYLQMNSLKPEDTAVYYCAKDKSPYGYATNQYRKYYYWGQGTQVTVSS | low polyreactivity |
| QVQLVESGGGLVQAGGSLRLSCAASGIIFYGKAMGWYRQAPGKERELVAAITWSGGSTYYADSVKGRFTISRDNAKNTVYLQMNRLKPEDTAVYYCAALSGAHEHFVEYDYWGQGTQVTVSS | low polyreactivity |
| QVQLVESGGGLVQAGGSLRLSCAASGRILSVYAMGWYRQAPGKERELVAAIEYSGGSTNYADSVKVRFTISRDTSKHTVYLLMNSLLPEDTAVYYCNGEGGAIAWRYLLEYLYSWGQGTQVTVSS | low polyreactivity |
| QVQLVESGGGLVQAGGSLRLSCAASGRIFGFYAMGWYRQAPGKERELVAVISNGGGSTYYADSVKGRFTISRDNAKNTVYLQMTSLKPEDTAVYYCAVALKYPRRYYYWGQGTQVTVSS | high polyreactivity |
| QVQLVESGGGLVQAGGSLRLICAASGRIFGVYAKGWYRQAPGKERDFVATNSNRGGGSTYYADSVKGRFTISRDNAMNTVYLQMNSLKPEDTSVYYCNVRARYPFGYDYWGQGTQVTVSS | high polyreactivity |
| HVQLVESGGGIVQAGGSLRLSCAASGSTYVTNDMGSYRQAPGKERELVAAIYSGTSTNYADSVKGRFTISRDNAKNTVYLQMNSLKPEDTAVYYCAADSLKRYDYWGQGTQVSVSS | low polyreactivity |
| QVQLVESGGGLVQAGGSLRLSCAASGNTFVYNAMGWYRQAPGKERELVAGLTKTGGRTYYADSVKGRVTISRDNAKNTVYLQMNSLKPEETAVYYCAARPWNDGYYVGRFHMDYWGQGTQVTVSS | low polyreactivity |
| QDLLVESGGGLVQAGGRLRLSCAASGSTFRYYAMGWYRQAPGKERELVAAITNSCGSTNYADSVKGRFTISRDNAKNTVYLQMNSLKPEDTAVYYCNANTWRYFTMGYWGHGTQVTVSS | high polyreactivity |
| QVQLVESGGGLVQAGGSLRLSCAASGSTSHYNAMGWYRQAPGKERELVASITWSGGSTYYADSVKGRFTISRDNAKNTVYLQMYSLKPEDTAVYYCNAQERRVRDYDYWGQGTQVTVSS | low polyreactivity |
| QVQLVESGGGLVQAGGSLRLSCAASGLTFDGNTMGWYRQAPGKERELVAAISFDGGNTYADSVKGRFTISRDNAKNTVYLQMISLKPEDTAVYYDYWGQGNQVTVSS | low polyreactivity |
| QVQLVESGGGLVQAGGSLRLSCAASGSTSTYYAMGWYRQAPGKERELVAAITLGAGRTYADSVKGRFTISRDNAKNTVYLQMNSLKPEDTAVYYCAADSHIDHGKWAYDYWGQGTQVTVSS | low polyreactivity |
| QVQLVESGGGLVQAGGSLRLSCAASGRIFRVYAMGWYRQAPGKERQLVAAISYSGGRTFYADSVKGRFTISRDNSKNTVYLQMNSLIPEDTAVYYCAAKSYYTQALPPLDYWGQCTQVTVSS | low polyreactivity |
| QVQLVESGGGLVQAGGSLRLSCAASGSTFRLYAMGWYRQAPGKERELVAAIRSGGNTNYADSVKGRFTISRDNAKNTVYLQMNSLKPEDTAVYYCAATYGTGRRSKYGYWGQGTQVTVSS | high polyreactivity |
| QVQLVESGGGLVQAGGSLRLSCAASGFTFYRYAMGWYRQAPGKERELVAAITRTGGSTYYADSVKGRFTISRDNAKNTVYLQMNSLKPEDTAVYYCAARVHGTGTLKYPNYYWGQGTQVTVSS | high polyreactivity |
| QVQLVESGGGLVQAGGSLRLSCAASGFTFRYYAMGWYRQAPGKERELVAAISYRGGRTYYADSVKGRFTISRDNAKNTVYLQMNSLKPEDTAVYYCAVDYTLADVIYDYWGQGTQVTVSS | high polyreactivity |
| QVQLVESGGGLVQAGGSLRLSCAASGNIFYQYAMGWYRQAPGKEREFVAAISISGTSTYADSVKGRFTISRDNAKNTVDLQLNSLKPEDTEVYWGQGTQVTVSS | low polyreactivity |
| QVQLVESGGVLVQAGGSLRLSCAAYGSTLRRYAMGWYRQAPGKERELVAAISYSGGSTYYADSVKGRFTISRDNAKNTVYLQMNSLKPEDTAVYYCAVVTRKGLYDYWGQGTQVTVSS | high polyreactivity |
